Reference: patent publication US20040248765

Test system: Example (8): 1-[3-(D-Alanyl-L-alanyl-L-alanyl-L-leucyl-glycyl-L-leucyl-L-prolylamino)-propylamino]anthraquinone trifluoroacetate

Chain of human recombinant MMP-9 (chain, as listed by the source): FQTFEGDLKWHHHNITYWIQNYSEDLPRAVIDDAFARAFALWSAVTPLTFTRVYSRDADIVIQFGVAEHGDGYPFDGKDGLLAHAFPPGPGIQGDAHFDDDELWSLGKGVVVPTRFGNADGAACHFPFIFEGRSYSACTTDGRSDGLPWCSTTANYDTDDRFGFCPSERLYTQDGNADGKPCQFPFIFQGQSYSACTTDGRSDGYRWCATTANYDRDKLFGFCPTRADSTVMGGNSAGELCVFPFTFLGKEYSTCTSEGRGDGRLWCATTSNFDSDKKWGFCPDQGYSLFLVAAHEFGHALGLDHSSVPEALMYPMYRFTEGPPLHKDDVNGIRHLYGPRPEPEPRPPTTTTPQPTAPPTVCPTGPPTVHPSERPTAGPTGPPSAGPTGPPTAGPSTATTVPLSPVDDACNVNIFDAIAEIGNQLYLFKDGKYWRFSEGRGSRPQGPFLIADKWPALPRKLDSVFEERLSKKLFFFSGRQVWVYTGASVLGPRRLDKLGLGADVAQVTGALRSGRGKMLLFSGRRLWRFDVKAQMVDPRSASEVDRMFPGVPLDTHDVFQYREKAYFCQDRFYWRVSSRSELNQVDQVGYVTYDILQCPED

human recombinant MMP-9
cleavage of the peptide conjugate by the enzyme, followed by HPLC and MS/MS: cleavage to anthraquinonyl, spacer-linked tripeptide Example 4
